Measurements: patent US20240270817A1 (PETMEDIX, published 2024)
Like-named read-outs stand apart in the source and are kept apart here.

B1: Bedinvetmab (antibody, V domains shown)
VH: EVQLVESGGDLVKPGGSLRLSCVASGFTFSSHGMHWVRQSPGKGLQWVAVINSGGSSTYYTDAVKGRFTISRDNAKNTVYLQMNSLRAEDTAMYYCAKESVGGWEQLVGPHFDYWGQGTLVIVSS
VL: QSVLTQPTSVSGSLGQRVTISCSGSTNNIGILGASWYQLFPGKAPKLLVYGNGNRPSGVPDRFSGADSGDSVTLTITGLQAEDEADYYCQSFDTTLGAHVFGGGTHLTVL

Columns and labels:
[1] = target: NGF (species not stated) (Homo sapiens (Human)) (UniProt P01138); experiment: SPR, Biacore 8K; captured on Protein A chip, NGF in solution (the table does not say human or rat)
[2] = target: NGF (species not stated) (Homo sapiens (Human)) (UniProt P01138); experiment: cell-based or functional assay
[3] = target: T1, human Nerve Growth Factor (human, UniProt P01138 122-241); experiment: SPR, Biacore 8K; captured on Protein A chip, hNGF in solution, multi-cycle kinetics
T1 construct: Bought protein; also called hNGF; human NGF

[4] = target: T1, human Nerve Growth Factor; experiment: cell-based or functional assay
[5] = target: NGF (species not stated) (Homo sapiens (Human)) (UniProt P01138); experiment: cell-based or functional assay; remark: listed apart in the source

T1 sequence (P01138 122-241 limits assumed): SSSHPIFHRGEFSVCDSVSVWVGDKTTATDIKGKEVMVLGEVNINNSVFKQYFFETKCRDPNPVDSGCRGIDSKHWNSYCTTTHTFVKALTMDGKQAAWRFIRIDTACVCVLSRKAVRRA

| Molecule | Kd [1] [nM] | Bottom (%), best-fit values, PathHunter TrkA activation assay [2] [%] | IC50 (nM), PathHunter TrkA activation assay [2] [nM] | Top (%), best-fit values, PathHunter TrkA activation assay [2] [%] | Kd [3] [nM] | IC50 (nM), TF-1 cell proliferation inhibition [4] [nM] | ICMAX (%), TF-1 cell proliferation inhibition [4] [%] | Bottom (%), best-fit, PathHunter TrkA activation assay [5] [%] | IC50 (nM), PathHunter TrkA activation assay [5] [nM] | Top (%), best-fit, PathHunter TrkA activation assay [5] [%] | maximal TrkA inhibition, PathHunter TrkA activation assay [5] [%] |
| --- | --- | --- | --- | --- | --- | --- | --- | --- | --- | --- | --- |
| PetML319 (Human p75NTR ECD no stalk IgG1) (Fc fusion) | 0.358 | 9.5 | 8.04 | – | – | – | – | – | – | – | – |
| PetML308 (Human p75NTR ECD full stalk IgG1) (Fc fusion) | 8.78 | 44.5 | 282 | 105 | – | – | – | – | – | – | – |
| B1 | 0.0073 | 2.11 | 1.14 | 93.5 | 0.0073 | 0.89 | 96.8 | 5.35 | 4.24 | 123 | 100 |
